Data as given in the supplement of paper PMC7125110.
± gives the standard error. Variants at the floor of the assay were thinned out.

B1: glmS ribozyme (parent)
chain: AUAAAAGCGCCAGAACUACAGAAAUGUAGUUGACGAGGAGGAGGUUUAUCGAAUUUUCGGCGGAUGCCUCCAAA

Variants of: B1
Test: self-cleavage kobs at 2500 uM GlcN6P; higher = faster cleavage; RNA array
Conditions: with glucosamine-6-phosphate
Method in brief: (§1)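 Barcoded ribozyme variants, transcribed in situ by E. coli RNA polymerase on sequenced MiSeq chips, were followed via a hybridised Cy3 probe at 37 °C. Glucosamine-6-phosphate ranged from 40 μM to 10 mM in HEPES/KCl/Mg(OAc)2 buffer. kobs came from decay fits to per-tile medians, and kcat and KM from weighted Michaelis–Menten fits.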

| Variant | self-cleavage kobs at 2500 uM GlcN6P |
| --- | --- |
| U47A U57C | 0.000104 ± 2.6e-05 s⁻¹ |
| U45A A48U | 0.0011 ± 0.00038 s⁻¹ |
| G41U U45G U49A | < 1e-05 s⁻¹ |
| U54G U57C | 0.000126 ± 2.3e-05 s⁻¹ |
| U46A A48U | 6.88e-05 ± 2.5e-05 s⁻¹ |
| A39C U47C U65A | 9.45e-05 ± 3.8e-05 s⁻¹ |
| A39C U46A U47G A48C G63A | < 1e-05 s⁻¹ |
| U45G U47A | 0.00816 ± 0.0022 s⁻¹ |
| A39C U56C U65G | 8.8e-05 ± 1.3e-05 s⁻¹ |
| C50G C58A C68G | 9.4e-05 ± 1.9e-05 s⁻¹ |
| U47C A52G G60C U65G C67A | < 1e-05 s⁻¹ |
| A53C U65C | 0.000159 ± 3.9e-05 s⁻¹ |
| U56G G60A U65G | < 1e-05 s⁻¹ |
| A39G G44U A53G | 0.000722 ± 0.00021 s⁻¹ |
| U56C C58U G63A | < 1e-05 s⁻¹ |
| G40U U54G C70G C71A | 6.39e-05 ± 1.8e-05 s⁻¹ |
| C58G G59C C61A G62A C71A | < 1e-05 s⁻¹ |
| G38C A39G G59A | < 1e-05 s⁻¹ |
| A42U G59U C61G A64U C68A C70G | < 1e-05 s⁻¹ |
| A42G G44A G51U | < 1e-05 s⁻¹ |
| G43A G66C C71A | < 1e-05 s⁻¹ |
| G37U U56C C67A | < 1e-05 s⁻¹ |
| A39C A53G C58A C61A | < 1e-05 s⁻¹ |
| U46C C50U C61U | < 1e-05 s⁻¹ |
| G44U C67U C71A | 3.95e-05 ± 1.3e-05 s⁻¹ |

| Variant | self-cleavage kobs at 2500 uM GlcN6P |
| --- | --- |
| A52U C61G G63C G66A | < 1e-05 s⁻¹ |
| G41U A42C C61A | < 1e-05 s⁻¹ |
| A48G U56A U69G | 7.7e-05 ± 2.2e-05 s⁻¹ |
| G37C U57C C58G | < 1e-05 s⁻¹ |
| G38A A39C C50G C68A | 5.88e-05 ± 2.8e-05 s⁻¹ |
| U46G U65A C67G | 0.000131 ± 2.5e-05 s⁻¹ |
| G40U U47G G51C U65A | < 1e-05 s⁻¹ |
| U45A U47G U54G U56C | 0.00285 ± 0.00062 s⁻¹ |
| G37U G51C A52G C61U C67U | < 1e-05 s⁻¹ |
| C50U A53U G62C | < 1e-05 s⁻¹ |
| A53G U56C G60U G62A | < 1e-05 s⁻¹ |
| A52U G60A G66U | < 1e-05 s⁻¹ |
| A42U G43U C50G | 7.64e-05 ± 3.6e-05 s⁻¹ |
| G51U C68U C71U | < 1e-05 s⁻¹ |
| A39C U54A U55C | 0.00249 ± 0.00052 s⁻¹ |
| G51C G66C C71A | < 1e-05 s⁻¹ |
| A52U A53G A64G | 5.47e-05 ± 1.7e-05 s⁻¹ |
| G38A C50G U69G | 6.3e-05 ± 1.7e-05 s⁻¹ |
| G38A U54C G63U | < 1e-05 s⁻¹ |
| G40C G60A G66A | < 1e-05 s⁻¹ |
| U65A C67G C71U | 3.53e-05 ± 1.5e-05 s⁻¹ |
| A39G G44A | 0.00105 ± 0.00035 s⁻¹ |
| A39U A48G C71U | 4.36e-05 ± 1.5e-05 s⁻¹ |
| G43U G44U G60A A64G C67A C71G | < 1e-05 s⁻¹ |

Variants of: B1
Test: self-cleavage kobs at 10000 uM GlcN6P; higher = faster cleavage; RNA array
Conditions: with glucosamine-6-phosphate
Method in brief: as §1

| Variant | self-cleavage kobs at 10000 uM GlcN6P |
| --- | --- |
| U47A U57C | 0.000159 ± 2.5e-05 s⁻¹ |
| G7A G40C A42U G43U U57C | < 1e-05 s⁻¹ |
| G7U A14U G29C | < 1e-05 s⁻¹ |
| C8U C58G U69G | 0.000536 ± 0.00016 s⁻¹ |
| G9C U31A | < 1e-05 s⁻¹ |
| A6U G9A G43C A53C C70G | < 1e-05 s⁻¹ |
| G7U G13C G32A | < 1e-05 s⁻¹ |
| C8G A14C G38A U56A G59U | < 1e-05 s⁻¹ |
| A39G G44U A53G | 0.000935 ± 0.00017 s⁻¹ |
| C8U C16A A39C A42C G59C C67A C70U | < 1e-05 s⁻¹ |
| A42G G44A G51U | < 1e-05 s⁻¹ |
| A6U G9U A52U | < 1e-05 s⁻¹ |
| G7U G29U G37U | < 1e-05 s⁻¹ |
| G44U C67U C71A | 4.71e-05 ± 1.2e-05 s⁻¹ |
| A6C U31G G41C U54A U55C C68U | < 1e-05 s⁻¹ |
| C8A A15U G35C | < 1e-05 s⁻¹ |
| A6U A36U A42C U65C | < 1e-05 s⁻¹ |
| G9U U30A C71U | < 1e-05 s⁻¹ |
| G40U U47G G51C U65A | < 1e-05 s⁻¹ |

| Variant | self-cleavage kobs at 10000 uM GlcN6P |
| --- | --- |
| G9C G63A C68G | < 1e-05 s⁻¹ |
| G9A A15C C67A | < 1e-05 s⁻¹ |
| A6C G37A C68A | < 1e-05 s⁻¹ |
| G7C A14U C67U C68G | < 1e-05 s⁻¹ |
| G9U A15U G37U | < 1e-05 s⁻¹ |
| A6U U54C U55G | 0.000129 ± 3.3e-05 s⁻¹ |
| A6U A33G G43C G60U | < 1e-05 s⁻¹ |
| G7A C8U U56C | < 1e-05 s⁻¹ |
| C8A C58U U69G | 0.0005 ± 8.7e-05 s⁻¹ |
| G9U U31G U54A | < 1e-05 s⁻¹ |
| G9C G41U G43U C67G | < 1e-05 s⁻¹ |
| A6C U45C U69G | < 1e-05 s⁻¹ |
| G9C C50U A64U | < 1e-05 s⁻¹ |
| C8A U56C C70G | < 1e-05 s⁻¹ |
| C8U G37C C50G A53U C67A | 0.000441 ± 0.00011 s⁻¹ |
| A6U A14G A36U A48U G63U | < 1e-05 s⁻¹ |
| A39G G44A | 0.000926 ± 0.00033 s⁻¹ |
| C8G G43A G44A C67A C70G | < 1e-05 s⁻¹ |
